This passage reports Kd and binding signal (fold higher affinity than ligand B) results from patent US5817785.

Series [1] concerns the target T1, HIV-1 Rev protein (HIV-1) (UniProt P04618).
T1 sequence: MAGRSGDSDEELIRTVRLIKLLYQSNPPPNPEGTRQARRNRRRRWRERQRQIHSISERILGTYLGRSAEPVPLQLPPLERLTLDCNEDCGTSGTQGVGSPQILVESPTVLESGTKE
Description: filter. Particulars: background affinity of starting pool.

In series [2] the target is HIV-1 reverse transcriptase (HIV-RT) (HIV-1) (UniProt P04585+P04585). The series is described as follows: filter.

Take “CCCGGAUCCUCUUUACCUCUGUGUGAGAUACAGAGUCCACAAACGUGUUCUCAAUGCACCCGGUCGGAAGGCCAUCAAUAGUCCC”: the Kd (in general, the equilibrium constant for the complex coming apart) in series [1] worked out at 100 nM. For “GGUCCGAAGUGCAACGGGAAAAUGCACUNNNNGUGARNNNNUGNUCCNNNN [extended HIV-RT ligands, Extension Motif I consensus]”, in series [2], the binding signal (fold higher affinity than ligand B) was greater than 10. Sequence “GGUCCGAAGUGCAACGGGAAAAUGCACUNNNNNNAGNNNNNNUGNUGNNNNNNN [extended HIV-RT ligands, Extension Motif II consensus]” showed a binding signal (fold higher affinity than ligand B) in series [2] greater than 10.
